In patent US20240182536A1 (MURAL ONCOLOGY, published 2024):

T1: human IL-18 binding protein (human, UniProt O95998 31-194)
T1 sequence (looked up): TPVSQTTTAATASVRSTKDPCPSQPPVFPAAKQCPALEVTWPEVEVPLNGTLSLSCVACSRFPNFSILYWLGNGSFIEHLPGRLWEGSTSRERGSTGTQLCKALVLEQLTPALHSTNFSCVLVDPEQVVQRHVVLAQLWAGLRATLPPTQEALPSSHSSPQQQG

T2: IL-18 receptors on HEK-Blue IL-18 reporter cells (UniProt Q13478 19-541; O95256 20-599, limits assumed)
T2 sequence (looked up) 1: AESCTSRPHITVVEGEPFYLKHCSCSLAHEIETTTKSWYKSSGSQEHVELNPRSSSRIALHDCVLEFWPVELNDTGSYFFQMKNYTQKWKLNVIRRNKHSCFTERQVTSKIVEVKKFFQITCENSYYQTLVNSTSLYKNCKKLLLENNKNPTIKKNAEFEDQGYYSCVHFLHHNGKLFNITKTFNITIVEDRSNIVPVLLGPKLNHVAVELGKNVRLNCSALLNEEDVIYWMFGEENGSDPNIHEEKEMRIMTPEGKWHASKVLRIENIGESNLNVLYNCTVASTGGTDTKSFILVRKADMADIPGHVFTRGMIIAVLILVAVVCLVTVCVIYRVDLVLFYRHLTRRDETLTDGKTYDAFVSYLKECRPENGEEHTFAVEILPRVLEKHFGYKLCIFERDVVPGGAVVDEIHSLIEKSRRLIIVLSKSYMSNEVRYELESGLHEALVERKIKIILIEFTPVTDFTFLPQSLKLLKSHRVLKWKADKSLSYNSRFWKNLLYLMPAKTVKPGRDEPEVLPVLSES
T2 sequence (looked up) 2: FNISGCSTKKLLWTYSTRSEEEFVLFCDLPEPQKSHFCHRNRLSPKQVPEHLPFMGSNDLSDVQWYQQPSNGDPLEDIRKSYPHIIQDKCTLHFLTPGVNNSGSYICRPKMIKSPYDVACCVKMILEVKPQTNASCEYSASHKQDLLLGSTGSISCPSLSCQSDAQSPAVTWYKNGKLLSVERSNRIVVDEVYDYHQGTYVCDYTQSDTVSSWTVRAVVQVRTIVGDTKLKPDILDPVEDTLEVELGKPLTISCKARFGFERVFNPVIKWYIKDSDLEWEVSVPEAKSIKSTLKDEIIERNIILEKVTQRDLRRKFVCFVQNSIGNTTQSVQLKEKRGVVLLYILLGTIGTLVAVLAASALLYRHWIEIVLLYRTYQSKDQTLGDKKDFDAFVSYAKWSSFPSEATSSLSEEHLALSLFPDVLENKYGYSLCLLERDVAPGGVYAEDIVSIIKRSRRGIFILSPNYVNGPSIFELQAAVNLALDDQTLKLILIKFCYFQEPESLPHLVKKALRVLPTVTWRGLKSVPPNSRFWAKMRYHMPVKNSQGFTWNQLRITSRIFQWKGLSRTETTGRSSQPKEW


How the values were obtained:
[1] = biological target: T1, human IL-18 binding protein; assay: cell-based or functional assay
[2] = biological target: T2, IL-18 receptors on HEK-Blue IL-18 …; assay: cell-based or functional assay

Binder | HEK-Blue activity, +100 nM BP, DF-10000 [1] | HEK-Blue activity, +100 nM BP, DF-100,000 [1] | HEK-Blue activity, +100 nM BP, DF-1,000,000 [1] | Ratio (-BP/+BP), DF-10000 [1] | Ratio (-BP/+BP), DF-100,000 [1] | Ratio (-BP/+BP), DF-1,000,000 [1] | HEK-Blue activity, No BP, DF-10000 [2] | HEK-Blue activity, No BP, DF-100,000 [2] | HEK-Blue activity, No BP, DF-1,000,000 [2]
yeast display IL-18 variant L5W, S7Y, K53H, S55M (ligand) YFGKWEYKLSVIRNLNDQVLFIDQGNRPLFEDMTDSDMRDNAPRTIFIISMYHDMQPRGMAVTISVKSEKISTLSSENKIISFKEMNPPDNIKDTKSDIIFFQRSVPGHDNKMQFESSSYEGYFLASEKERDLFKLILKKEDELGDRSIMFTVQNED | 0.12 | 0.12 | 0.13 | 4.04 | 1.41 | 1.24 | 0.5 | 0.16 | 0.16
yeast display IL-18 variant T34I, S36T, D40A, N41M, K53T, S55Y (ligand) YFGKLESKLSVIRNLNDQVLFIDQGNRPLFEDMIDTDMRAMAPRTIFIISMYTDYQPRGMAVTISVKSEKISTLSSENKIISFKEMNPPDNIKDTKSDIIFFQRSVPGHDNKMQFESSSYEGYFLASEKERDLFKLILKKEDELGDRSIMFTVQNED | 0.37 | 0.12 | 0.12 | 1.03 | 1.45 | 1.18 | 0.38 | 0.18 | 0.14
yeast display IL-18 variant K53H, S55V (ligand) YFGKLESKLSVIRNLNDQVLFIDQGNRPLFEDMTDSDMRDNAPRTIFIISMYHDVQPRGMAVTISVKSEKISTLSSENKIISFKEMNPPDNIKDTKSDIIFFQRSVPGHDNKMQFESSSYEGYFLASEKERDLFKLILKKEDELGDRSIMFTVQNED | 1.05 | 0.34 | 0.14 | 1.53 | 2.79 | 2.31 | 1.6 | 0.94 | 0.33
yeast display IL-18 variant K53Q, D54N, S55M, Q56H (ligand) YFGKLESKLSVIRNLNDQVLFIDQGNRPLFEDMTDSDMRDNAPRTIFIISMYQNMHPRGMAVTISVKSEKISTLSSENKIISFKEMNPPDNIKDTKSDIIFFQRSVPGHDNKMQFESSSYEGYFLASEKERDLFKLILKKEDELGDRSIMFTVQNED | 0.21 | 0.11 | 0.09 | 2.21 | 1.16 | 1.06 | 0.46 | 0.13 | 0.09
yeast display IL-18 variant E6D, S36F, K53T, S55M, R58K (ligand) YFGKLDSKLSVIRNLNDQVLFIDQGNRPLFEDMTDFDMRDNAPRTIFIISMYTDMQPKGMAVTISVKSEKISTLSSENKIISFKEMNPPDNIKDTKSDIIFFQRSVPGHDNKMQFESSSYEGYFLASEKERDLFKLILKKEDELGDRSIMFTVQNED | 0.5 | 0.14 | 0.09 | 0.96 | 1.02 | 0.96 | 0.48 | 0.14 | 0.09
yeast display IL-18 variant K53N, S55M, R104S, P107A (ligand) YFGKLESKLSVIRNLNDQVLFIDQGNRPLFEDMTDSDMRDNAPRTIFIISMYNDMQPRGMAVTISVKSEKISTLSSENKIISFKEMNPPDNIKDTKSDIIFFQSSVAGHDNKMQFESSSYEGYFLASEKERDLFKLILKKEDELGDRSIMFTVQNED | 0.15 | 0.12 | 0.11 | 5.37 | 1.93 | 1.08 | 0.8 | 0.24 | 0.12
